Literature values in US10822386B2, “Insulin analogues with enhanced stability and reduced mitogenicity” (CASE WESTERN RESERVE UNIVERSITY, priority 2014, dated 2020).

Assays:
[1] = substitution of His^B10 by Asp, versus wild-type
[2] = target: insulin receptor (Homo sapiens, UniProt P06213); conditions: versus wild-type insulin
[3] = system: isolated adipocytes
[4] = system: neoplastic cell lines (including a cell line derived from a human breast cancer)
[5] = system: Sprague-Dawley rats; conditions: chronic treatment, relative to wild-type insulin

affinity for the insulin receptor [2]: enhances the affinity
Substance: Asp^B10-insulin
thermodynamic stability of the zinc-free insulin monomer [1]: augment the thermodynamic stability
potency to stimulate lipogenesis [3]: augments in parallel its potency
mitogenicity in cell culture [4]: increased mitogenicity
incidence of mammary tumors [5]: excess incidence of mammary tumors
